Results as given in publication PMC3940844.

Assays:
[1] = molecular target: FH-p53 (FLAG- and oligohistidine-tagged human p53) (human) (UniProt P04637); experiment: pull-down; competitive GST pull-down: FH-TLP or FH-TBP co-applied with FH-p53 to beads with GST-TBP or GST-TLP; recovered p53 by band intensity
[2] = molecular target: GST-TBP (glutathione S-transferase-tagged human TATA-binding protein) (human) (UniProt P20226); experiment: pull-down; GST pull-down with increasing amounts of protein (p53 by the text, GST proteins by the legend); ratio of bound p53 to input by band intensity
GST-TBP (glutathione S-transferase-tagged human TATA-binding protein) (human), sequence (P20226 whole entry): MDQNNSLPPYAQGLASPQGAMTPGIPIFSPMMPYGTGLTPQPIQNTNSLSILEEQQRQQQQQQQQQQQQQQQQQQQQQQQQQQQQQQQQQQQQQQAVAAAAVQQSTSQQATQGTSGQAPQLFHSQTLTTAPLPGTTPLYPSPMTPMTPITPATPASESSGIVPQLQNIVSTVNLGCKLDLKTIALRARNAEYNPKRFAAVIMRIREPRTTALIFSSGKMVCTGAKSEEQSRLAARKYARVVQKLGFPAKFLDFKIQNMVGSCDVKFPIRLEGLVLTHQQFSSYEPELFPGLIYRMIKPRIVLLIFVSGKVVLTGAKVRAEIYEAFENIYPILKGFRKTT

p53 recovered on GST-TLP with FH-TBP as competitor, percent of the control experiment [1] | ratio of bound p53 to input at the plateau [2] | Substance
6% |  | FH-TBP (purified competitor in the pull-down) (from UniProt P20226 1-339) (natural protein)
 | 0.5 | FH-p53 (FLAG- and oligohistidine-tagged human p53) (from UniProt P04637 1-393) (natural protein)
